In patent US20130195901A1 one finds EC50 data, which are given here for one molecule.

The test has as its target HLA-A*0201 class I monomer of the iTopia Epitope Discovery System. The test can be described thus: iTopia binding ED50. As to conditions: modification not given.

Take YLSEKIFYV [PSMA 288-297 (L289(Nle), I297(Nle))]: the EC50 (commonly the concentration that produces a half-maximal response) amounted to 524 nM.
